In US20060234941A1 (US Dept. of Health and Human Services, published 2006):

Columns and labels:
[1] = target: T1, H-2Db MHC class I molecule on RMA-S cells (mouse, UniProt P01887 21-119; P01899 25-362); test: RMA-S MHC class I stabilisation assay, flow cytometry with anti-H-2Db antibody
T1 construct: MHC class I stabilised on RMA-S (H-2b) cells by added peptide; detected with anti-H-2Db monoclonal antibody clone 28-14-8; also called H-2Db molecules
T1 sequence (MHC heavy, looked up): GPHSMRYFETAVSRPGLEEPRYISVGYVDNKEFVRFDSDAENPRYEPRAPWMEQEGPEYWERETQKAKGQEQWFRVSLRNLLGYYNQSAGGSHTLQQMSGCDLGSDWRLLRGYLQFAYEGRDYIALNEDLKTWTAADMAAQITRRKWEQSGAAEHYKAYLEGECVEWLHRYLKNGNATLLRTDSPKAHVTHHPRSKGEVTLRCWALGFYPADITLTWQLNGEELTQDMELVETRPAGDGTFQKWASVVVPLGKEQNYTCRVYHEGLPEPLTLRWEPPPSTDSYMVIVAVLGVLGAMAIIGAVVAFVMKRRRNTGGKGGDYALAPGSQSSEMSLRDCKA
T1 sequence (b2m, looked up): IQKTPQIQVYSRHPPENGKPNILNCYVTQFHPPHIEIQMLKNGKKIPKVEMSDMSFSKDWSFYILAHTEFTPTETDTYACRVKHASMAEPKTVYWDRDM
Method: To test the binding affinity of these peptides to H-2Db, an RMA-S binding experiment was performed, and the FI value in the assay was measured. […] The RMA-Binding assays were performed as previously described (Lyman et al., J. Virol. 76:3125-3134, 2002). Briefly, synthetic peptides were dissolved in dimethyl sulfoxide before dilution. For MHC-binding assays, RMA-S cells were loaded with various peptides for 16 to 18 h at 37° C. Levels of surface class I molecules were assessed by flow cytometric analysis (FACScan; Becton Dickinson) using mouse monoclonal antibodies specific for H-2Db (Southern Biotech, clone No. 28-14-8). FI=Fluorescence after peptides stimulation/ Fluorescence without peptide-1.

[2] = target: T2, HLA-A2 on the surface of T2 cells (human); test: T2 HLA-A2 stabilisation assay, flow cytometry with W6/32
T2 construct: Stabilised HLA-A2 detected with pan HLA class I monoclonal antibody W6/32; also called MHC molecules
Method: To test the binding affinity of the predicted human peptides for HLA-A2, three exemplary peptides, designated KDR505 (SEQ ID NO:6), KDR775 (SEQ ID NO:7) and KDR1093 (SEQ ID NO:5) were synthesized and evaluated in a T2 binding assay as described by Cerundolo et al., Nature 342:449-452, 1990. In brief, T2 cells were cultured in RPMI1640 with 10% FBS, and grown in 5% CO₂ at 37° C. Cells (1×10⁵) in a volume of 100 μl of RPMI 1640 (serum free) were aliquoted into 96-well, U-bottomed plates and incubated with peptide at a final concentration of 0.1-100 μM plus 5 nM β₂ microglobulin (Cymbus Biotechnology Ltd., Chandlers Ford, Hampshire, United Kingdom) for 18 h at 37° C. in 5% CO₂. The level of stabilized HLA-A2 on the surface of the T2 cells was detected using the pan HLA class I monoclonal antibody W6/32 (European Collection of Animal Cell Cultures (ECACC), Porton Down, Salisbury) that recognizes stabilized HLA-A2 complexes. Samples are fixed in 1% paraformaldehyde in PBS prior to analysis and analyzed on a Becton Dickinson FACSCAN®.

B1: KDR3 (murine VEGFR-2/KDR peptide FSNSTNDILI) (peptide)
peptide: FSNSTNDILI
notes: Synthetic peptide (Sigma); also called VEGFR-2/KDR3
- peptide concentration at FI=0.5 [1]: ~3 µM

B2: KDR775 (human VEGFR-2/KDR peptide AMFFWLLLV) (peptide)
peptide: AMFFWLLLV
- binding result [2]: binds

B3: KDR505 (human VEGFR-2/KDR peptide ALIEGKNKT) (peptide)
peptide: ALIEGKNKT
- binding result [2]: binds

B4: KDR1093 (human VEGFR-2/KDR peptide VLLWEIFSL) (peptide)
peptide: VLLWEIFSL
- binding result [2]: binds

B5: Human P53 264-272 peptide (peptide, UniProt P04637 264-272, looked up)
peptide: LLGRNSFEV
notes: range 264-272; also called wild type P53 264-272
- binding result [1]: no binding (tested: 200 µM)
- peptide concentration at FI=0.5 [1]: > 200 µM

B6: KDR2 (murine VEGFR-2/KDR peptide VILTNPISM) (peptide)
peptide: VILTNPISM
notes: Synthetic peptide (Sigma); also called VEGFR-2/KDR2
- peptide concentration at FI=0.5 [1]: ~24 µM

B7: Human Papilloma Virus (HPV)16E7 49-57 peptide (peptide, UniProt P03129 49-57, looked up)
peptide: RAHYNIVTF
notes: range 49-57; also called HPV E7 49-57
- peptide concentration at FI=0.5 [1]: ~12.5 µM
